Assays:
[1] = biological target: SecA^A795C-FL (SecA with a fluorescein label at position 795 on the tip of the two-helix finger) (E. coli) (UniProt P10408); test: other fluorescence titration; as a1 (10 nM SecA*, TSG buffer, 0.02% DDM, 2 mM MgCl2, 1 mM AMPPNP) with SecYLGEG pre-incubated with 100 mM DTT
[2] = biological target: SecA^A795C-FL (SecA with a fluorescein label at position 795 on the tip of the two-helix finger) (E. coli) (UniProt P10408); test: other fluorescence titration; 10 nM SecA* fixed, SecYEG varied; quenching of the fluorescein on SecA*; TSG buffer (20 mM Tris pH 7.5, 130 mM NaCl, 10% glycerol) with 0.02% DDM, 2 mM MgCl2, 1 mM AMPPNP; no DTT; fitted to a tight binding equation

Substance	Kd [1] [nM]	Kd [2] [nM]
SecYLGEG pre-incubated with 100 mM DTT (disulphide between S87C and F286C of SecY reduced) (from UniProt P0AGA2 1-443; P0AG96 1-127; P0AG99 1-110) (complex)	19	
SecYLGEG, oxidised (SecYEG with the lateral gate closed by a disulphide bond between S87C and F286C of SecY) (from UniProt P0AGA2 1-443; P0AG96 1-127; P0AG99 1-110) (complex)		41

Reference: PMC4907695
